According to the supplement of paper PMC10567573:
± gives the standard deviation.

Assay: protein stability index of a GFP-peptide fusion (GPS, HEK-293T) (PSI 1-6); higher = more stable
Conditions: c terminus: a fixed tail appended
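Also: 24-mer peptide tiles fused after GFP, lentivirally expressed, FACS-sorted into six equal bins by GFP/DsRed ratio, decoded by Illumina sequencing, PSI is the read-weighted mean bin number.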

Sequence	protein stability index (treatment: DMSO)	protein stability index (treatment: MLN4924 1 uM, 8 h)
CSVRPDASVSSHRFFGPNAEISQP [TCF25]	3.57 ± 0.32	3.73 ± 0.092
PATHLSPALAPVPRNSCITCPQCH [TRIM9]	3.82 ± 0.39	3.87 ± 0.23
DATQEYKEKLQKCLEPLEQKLQEI [TRIM39]	4.8 ± 0.055	5.02 ± 0.18
AQILPSRVQGGCYRFDSSSCSSED [DRICH1]	4.05 ± 0.26	3.92 ± 0.35
AYAHPQQKVAVYRALQAALAESGG [TRADD]	2.43 ± 0.51	2.65 ± 0.34
CGSFYREPIILPCSHNLCQACARN [TRIM9]	2.22 ± 0.25	2.19 ± 0.33
KESLCAKEEKCQGKGDDSETDKNN [KCNA4]	5.62 ± 0.16	5.42 ± 0.1
FLHPDLGVGGAERLVLDAALALQA [ALG2]	2.32 ± 0.43	2.27 ± 0.23
AVNAHQWLDNPERWNKVKMVVSRE [SEPHS2]	3.02 ± 0.37	2.67 ± 0.3
PFNGDCRITKDNRRHCQACRLKRC [VDR]	3.19 ± 0.3	3.4 ± 0.34
MPEERASKYENYFSASERLSLKRE [HESX1]	4.41 ± 0.51	4.75 ± 0.31
EGAVKMGMPSSLAHRIAAQTLLGT [PYCR3]	3.08 ± 0.53	3.39 ± 0.17
NVEHYQELKKMVQQSDLGQYVTFL [ALG2]	2.27 ± 0.12	2.43 ± 0.27
LGDPPPLLTLPRPPLSGALASITE [HDAC6]	4.33 ± 0.38	4.41 ± 0.32
AQDLTEAEGWHFFCFQGEATRKLA [SAT2]	2.94 ± 0.36	3.32 ± 0.46
PRCPGSVNEKLPQREGTGKTVSLQ [SMOC2]	5.03 ± 0.14	5.03 ± 0.54
FHLGLEDILMEEEEGVVGGLSGGA [TFE3]	3.75 ± 0.46	4.3 ± 0.46
PDAETLKVMKQPRCGVPDVAQFVL [MMP1]	2.4 ± 0.3	2.31 ± 0.27
PQEPRPPKRATKPKKAPKREKSAP [CPXM2]	5.14 ± 0.46	5.42 ± 0.18
SQTPILQALQHVQASCDEAHKMKF [INTS3]	3.88 ± 0.14	3.93 ± 0.21
GFCFFNSVAVAARHAQTISGHALR [HDAC6]	2.25 ± 0.43	1.76 ± 0.28
GAGAGAPGGGRLLLSTSLDAKDEL [INTS3]	5.04 ± 0.27	5.08 ± 0.068

Sequence	protein stability index (treatment: DMSO)	protein stability index (treatment: MLN4924 1 uM, 8 h)
IFRDNQWVGFDDVESFKTKVSYLK [CHIT1]	2.54 ± 0.34	2.81 ± 0.24
SLRKAIETVYAAYLPKNTHPFLYL [MLH1]	3.76 ± 0.68	–
LRQLGCKDGKNWNSNQATDIMETS [SPOPL]	4.25 ± 0.24	4.28 ± 0.1
QPAGNRRGQARRLAPNFRWAIPNR [BEX3]	3.89 ± 0.14	3.75 ± 0.32
EKKDLKLEPPEEEIIEGNTKSHIM [NECAB1]	5.46 ± 0.17	5.43 ± 0.14
QSSKRSSRSVEDDKEGHLVCRIGD [CLK3]	5.3 ± 0.43	5.17 ± 0.25
TLGGLNPSPSEVITPWTPSPSEKN [SMTNL2]	5.21 ± 0.25	5.08 ± 0.14
EKSVLKEVSHPFLIRLFWTWHDER [PRKX]	2.56 ± 0.29	2 ± 0.32
SELPFVPNYLANPAFPFIYTPTAE [ANKRD40]	2.8 ± 0.19	2.95 ± 0.2
FEAAFGTTPSTSSSSSFDPSVFDG [SNAP91]	4.61 ± 0.12	4.53 ± 0.22
DKLDGNELDLSLSDLNEVPVKELA [LRRC59]	5.26 ± 0.093	5.34 ± 0.33
LEVKIHDWYQKQTPTSPECDYSQY [KRT15]	2.81 ± 0.3	2.94 ± 0.25
SFSTAIGRTCITDLQLTVGGAQAS [MFSD9]	2.5 ± 0.33	2.34 ± 0.3
TDKQPLSDAWTYCISKNEWIQFNH [KLHDC2]	2.5 ± 0.2	2.67 ± 0.27
MATITCTRFTEEYQLFEELGKGAF [CAMK2A]	2.35 ± 0.23	2.44 ± 0.4
CQDSSGEVSCQCQLHPPRWYSRLQ	2.38 ± 0.28	2.81 ± 0.23
TKLEERSRVKCDQYWPSRGTETHG [PTPRD]	3.97 ± 0.14	3.71 ± 0.54
GVADFSATYLRCQLLLIKALQEKL [INTS4]	2.77 ± 0.42	2.65 ± 0.48
PDTAPPSERPLEDLRLRLDHLGWV [RTN2]	3.39 ± 0.44	3.24 ± 0.38
VHGIRSVGTAAVNMCLVATGGADA [IMPA1]	2.78 ± 0.35	2.93 ± 0.39
GLSAGYVDAGAEPGRSRMISQEEF [LPCAT4]	4.47 ± 0.32	4.78 ± 0.23
HSRRHESYSRGYSYHDGYGEALGR [RBMY1A1]	3.14 ± 0.3	3.24 ± 0.36

Sequence	protein stability index (treatment: DMSO)	protein stability index (treatment: MLN4924 1 uM, 8 h)
ERYDPNIDQWSMLGDMQTAREGAG [KLHL12]	4.2 ± 0.25	4.33 ± 0.19
EERLKLSPSPSSRVTVSRASSSRS [LMNB1]	4.94 ± 0.15	5.03 ± 0.25
GGGEGKAMYIDTEGTFRPERLLAV [RAD51]	2.69 ± 0.32	2.9 ± 0.37
KGDSTIRELKAKLSGVEEELQRTK [SASS6]	4.86 ± 0.32	4.58 ± 0.21
TNVESQLAEIRCDLERQNQEYQVL [KRT34]	4.32 ± 0.21	4.27 ± 0.17
HTLILMFIWFVCSLVYYGLTLSAG [SLC22A15]	2.42 ± 0.79	2.16 ± 0.36
PDPTPPEPEEEILGSDDEEQEDPA [SRPK2]	5.62 ± 0.33	5.53 ± 0.21
VLNVAGEAGGKQKAVEEELDAEDR [SLC6A17]	5.72 ± 0.17	5.69 ± 0.16
GNSISISALQSLLQHLIGLSNLTH [PRAME]	2.54 ± 0.036	2.62 ± 0.41
AWTLINLSFAAKQRELHSHVTNAM [DHCR7]	3.12 ± 0.34	3.05 ± 0.24
KPYKCQQCDKRFRWSSDLNKHLTT [ZNF75A]	2.18 ± 0.14	2.37 ± 0.17
VVACDFSPDGALLATASYDTRVYI [WSB1]	3.41 ± 0.6	2.74 ± 0.83
YYPSGDAFASGSDDATCRLYDLRA [GNB5]	2.94 ± 0.33	3.38 ± 0.34
RGMDLSWESRTGDQYSYSSLVMGS [LCOR]	2.65 ± 0.41	2.92 ± 0.28
YPNYEFISDNSISWSAGLHNRYTE [FUT8]	2.51 ± 0.1	2.72 ± 0.36
PKAERLRWSPAQEESFRQMVVIHK [ZNF232]	3.19 ± 0.31	3.25 ± 0.37
RMTSSPSSIPRRDDFFRHESGEHF [RAD54B]	3.67 ± 0.25	3.68 ± 0.14
ELSEEGAEGRVVGRKDITSILRAP [MOSPD3]	4.82 ± 0.11	4.78 ± 0.18
YPTSDQEGDPGSKQPRKKRGRYRQ [LCOR]	5.3 ± 0.23	5.45 ± 0.27
AAANGGHVKIVKLLLAHKADVNAQ [ANKRD17]	2.51 ± 0.31	2.68 ± 0.18
TVCDDKWDLVSASVVCRELGFGSA [LOXL2]	2.54 ± 0.49	2.7 ± 0.2
